T1: TNFR1 (Homo sapiens, UniProt P19438)
T1 chain: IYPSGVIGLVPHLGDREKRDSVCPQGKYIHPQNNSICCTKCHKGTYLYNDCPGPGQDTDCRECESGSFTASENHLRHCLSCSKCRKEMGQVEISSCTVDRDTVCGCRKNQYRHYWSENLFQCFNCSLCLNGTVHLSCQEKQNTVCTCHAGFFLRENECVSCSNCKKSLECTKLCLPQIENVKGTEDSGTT


Biological target: T1, TNFR1
Assay: yeast display SC50

| apparent Kd (screen) | Binder |
| --- | --- |
| 1.05 nM | E16D (designed binder) MTLQELLREEALRRADAEAFRYALELLAEKFPEQKEYLLDLAEEIESQIRSLSGVDVEDVRKFLDKEWAWVKELLAEHPAELAEVEAARAARLAELRAEVEAKVAA |
| 0.593 nM | V100P (designed binder) MTLQELLREEALRRAEAEAFRYALELLAEKFPEQKEYLLDLAEEIESQIRSLSGVDVEDVRKFLDKEWAWVKELLAEHPAELAEVEAARAARLAELRAEPEAKVAA |
| 0.539 nM | E81G (designed binder) MTLQELLREEALRRAEAEAFRYALELLAEKFPEQKEYLLDLAEEIESQIRSLSGVDVEDVRKFLDKEWAWVKELLAEHPAGLAEVEAARAARLAELRAEVEAKVAA |
| 1.16 nM | E25W (designed binder) MTLQELLREEALRRAEAEAFRYALWLLAEKFPEQKEYLLDLAEEIESQIRSLSGVDVEDVRKFLDKEWAWVKELLAEHPAELAEVEAARAARLAELRAEVEAKVAA |
| 0.49 nM | S47N (designed binder) MTLQELLREEALRRAEAEAFRYALELLAEKFPEQKEYLLDLAEEIENQIRSLSGVDVEDVRKFLDKEWAWVKELLAEHPAELAEVEAARAARLAELRAEVEAKVAA |
| 0.49 nM | V57Y (designed binder) MTLQELLREEALRRAEAEAFRYALELLAEKFPEQKEYLLDLAEEIESQIRSLSGVDYEDVRKFLDKEWAWVKELLAEHPAELAEVEAARAARLAELRAEVEAKVAA |
| 0.593 nM | E77V (designed binder) MTLQELLREEALRRAEAEAFRYALELLAEKFPEQKEYLLDLAEEIESQIRSLSGVDVEDVRKFLDKEWAWVKELLAVHPAELAEVEAARAARLAELRAEVEAKVAA |
| 0.539 nM | A106L (designed binder) MTLQELLREEALRRAEAEAFRYALELLAEKFPEQKEYLLDLAEEIESQIRSLSGVDVEDVRKFLDKEWAWVKELLAEHPAELAEVEAARAARLAELRAEVEAKVAL |
| 1.05 nM | A106D (designed binder) MTLQELLREEALRRAEAEAFRYALELLAEKFPEQKEYLLDLAEEIESQIRSLSGVDVEDVRKFLDKEWAWVKELLAEHPAELAEVEAARAARLAELRAEVEAKVAD |
| 0.718 nM | V100G (designed binder) MTLQELLREEALRRAEAEAFRYALELLAEKFPEQKEYLLDLAEEIESQIRSLSGVDVEDVRKFLDKEWAWVKELLAEHPAELAEVEAARAARLAELRAEGEAKVAA |
| 0.718 nM | E5L (designed binder) MTLQLLLREEALRRAEAEAFRYALELLAEKFPEQKEYLLDLAEEIESQIRSLSGVDVEDVRKFLDKEWAWVKELLAEHPAELAEVEAARAARLAELRAEVEAKVAA |
| 0.718 nM | V104R (designed binder) MTLQELLREEALRRAEAEAFRYALELLAEKFPEQKEYLLDLAEEIESQIRSLSGVDVEDVRKFLDKEWAWVKELLAEHPAELAEVEAARAARLAELRAEVEAKRAA |
| 0.49 nM | L82V (designed binder) MTLQELLREEALRRAEAEAFRYALELLAEKFPEQKEYLLDLAEEIESQIRSLSGVDVEDVRKFLDKEWAWVKELLAEHPAEVAEVEAARAARLAELRAEVEAKVAA |
| 0.956 nM | A106G (designed binder) MTLQELLREEALRRAEAEAFRYALELLAEKFPEQKEYLLDLAEEIESQIRSLSGVDVEDVRKFLDKEWAWVKELLAEHPAELAEVEAARAARLAELRAEVEAKVAG |
| 5.31 nM | E16K (designed binder) MTLQELLREEALRRAKAEAFRYALELLAEKFPEQKEYLLDLAEEIESQIRSLSGVDVEDVRKFLDKEWAWVKELLAEHPAELAEVEAARAARLAELRAEVEAKVAA |
| 0.869 nM | V104S (designed binder) MTLQELLREEALRRAEAEAFRYALELLAEKFPEQKEYLLDLAEEIESQIRSLSGVDVEDVRKFLDKEWAWVKELLAEHPAELAEVEAARAARLAELRAEVEAKSAA |
| 0.539 nM | E99G (designed binder) MTLQELLREEALRRAEAEAFRYALELLAEKFPEQKEYLLDLAEEIESQIRSLSGVDVEDVRKFLDKEWAWVKELLAEHPAELAEVEAARAARLAELRAGVEAKVAA |
| 1.16 nM | E99P (designed binder) MTLQELLREEALRRAEAEAFRYALELLAEKFPEQKEYLLDLAEEIESQIRSLSGVDVEDVRKFLDKEWAWVKELLAEHPAELAEVEAARAARLAELRAPVEAKVAA |

| apparent Kd (screen) | Binder |
| --- | --- |
| 0.653 nM | T2S (designed binder) MSLQELLREEALRRAEAEAFRYALELLAEKFPEQKEYLLDLAEEIESQIRSLSGVDVEDVRKFLDKEWAWVKELLAEHPAELAEVEAARAARLAELRAEVEAKVAA |
| 2.48 nM | I49W (designed binder) MTLQELLREEALRRAEAEAFRYALELLAEKFPEQKEYLLDLAEEIESQWRSLSGVDVEDVRKFLDKEWAWVKELLAEHPAELAEVEAARAARLAELRAEVEAKVAA |
| 0.405 nM | E77P (designed binder) MTLQELLREEALRRAEAEAFRYALELLAEKFPEQKEYLLDLAEEIESQIRSLSGVDVEDVRKFLDKEWAWVKELLAPHPAELAEVEAARAARLAELRAEVEAKVAA |
| 1.16 nM | H78I (designed binder) MTLQELLREEALRRAEAEAFRYALELLAEKFPEQKEYLLDLAEEIESQIRSLSGVDVEDVRKFLDKEWAWVKELLAEIPAELAEVEAARAARLAELRAEVEAKVAA |
| 24.4 nM | Y37V (designed binder) MTLQELLREEALRRAEAEAFRYALELLAEKFPEQKEVLLDLAEEIESQIRSLSGVDVEDVRKFLDKEWAWVKELLAEHPAELAEVEAARAARLAELRAEVEAKVAA |
| 13.8 nM | S53W (designed binder) MTLQELLREEALRRAEAEAFRYALELLAEKFPEQKEYLLDLAEEIESQIRSLWGVDVEDVRKFLDKEWAWVKELLAEHPAELAEVEAARAARLAELRAEVEAKVAA |
| 1.27 nM | A28T (designed binder) MTLQELLREEALRRAEAEAFRYALELLTEKFPEQKEYLLDLAEEIESQIRSLSGVDVEDVRKFLDKEWAWVKELLAEHPAELAEVEAARAARLAELRAEVEAKVAA |
| 0.539 nM | A94G (designed binder) MTLQELLREEALRRAEAEAFRYALELLAEKFPEQKEYLLDLAEEIESQIRSLSGVDVEDVRKFLDKEWAWVKELLAEHPAELAEVEAARAARLGELRAEVEAKVAA |
| 1.27 nM | A11M (designed binder) MTLQELLREEMLRRAEAEAFRYALELLAEKFPEQKEYLLDLAEEIESQIRSLSGVDVEDVRKFLDKEWAWVKELLAEHPAELAEVEAARAARLAELRAEVEAKVAA |
| 0.49 nM | P79H (designed binder) MTLQELLREEALRRAEAEAFRYALELLAEKFPEQKEYLLDLAEEIESQIRSLSGVDVEDVRKFLDKEWAWVKELLAEHHAELAEVEAARAARLAELRAEVEAKVAA |
| 2.73 nM | G54Y (designed binder) MTLQELLREEALRRAEAEAFRYALELLAEKFPEQKEYLLDLAEEIESQIRSLSYVDVEDVRKFLDKEWAWVKELLAEHPAELAEVEAARAARLAELRAEVEAKVAA |
| 0.593 nM | I45V (designed binder) MTLQELLREEALRRAEAEAFRYALELLAEKFPEQKEYLLDLAEEVESQIRSLSGVDVEDVRKFLDKEWAWVKELLAEHPAELAEVEAARAARLAELRAEVEAKVAA |
| 0.49 nM | R21F (designed binder) MTLQELLREEALRRAEAEAFFYALELLAEKFPEQKEYLLDLAEEIESQIRSLSGVDVEDVRKFLDKEWAWVKELLAEHPAELAEVEAARAARLAELRAEVEAKVAA |
| 2.05 nM | E86Y (designed binder) MTLQELLREEALRRAEAEAFRYALELLAEKFPEQKEYLLDLAEEIESQIRSLSGVDVEDVRKFLDKEWAWVKELLAEHPAELAEVYAARAARLAELRAEVEAKVAA |
| 0.593 nM | W70F (designed binder) MTLQELLREEALRRAEAEAFRYALELLAEKFPEQKEYLLDLAEEIESQIRSLSGVDVEDVRKFLDKEWAFVKELLAEHPAELAEVEAARAARLAELRAEVEAKVAA |
| 0.869 nM | P32D (designed binder) MTLQELLREEALRRAEAEAFRYALELLAEKFDEQKEYLLDLAEEIESQIRSLSGVDVEDVRKFLDKEWAWVKELLAEHPAELAEVEAARAARLAELRAEVEAKVAA |
| 0.593 nM | V104Y (designed binder) MTLQELLREEALRRAEAEAFRYALELLAEKFPEQKEYLLDLAEEIESQIRSLSGVDVEDVRKFLDKEWAWVKELLAEHPAELAEVEAARAARLAELRAEVEAKYAA |

Reference: publication PMC12416549 (2024)
